The assay addresses glycoprotein D of HSV-1 KOS/tk12 (wild type HSV-1 KOS carrying a lacZ reporter gene) (herpes simplex virus 1 (HSV-1 KOS)). The assay can be described thus: cell-based or functional assay.

For recombinant sHveA102 protein (receptor), the percentage of cells infected with the virus (X-gal staining) turned out to be 70%.
